From patent publication US20240335558A1, “ISOLATED POLYPEPTIDE AND USE THEREOF” (GLYCO-THERAPY BIOTECHNOLOGY CO., LTD., priority 2021, published 2024)

What was measured:
Type in all cases: biochemical
[1] = test system: Trastuzumab-G2F; test: HpFT-2HR and HpFT-4HR transferring GDP-FAmP4Biotin or GDP-FAzP4Biotin to Trastuzumab-G2F; details: donor 1 mM, enzyme 0.5 mg/mL, 30° C., 6 h; FIG. 6(A)
Description: (§1) To 40 mM Tris-HCl (pH 7.5) buffer were added Trastuzumab-G2F (2 mg/mL final), GDP-FAmP4Biotin (1 mM final), MgCl2 (20 mM final), and different HpFT enzymes (HpFT-4HR, HpFT-4HR(M4), HpFT-4HR(M7), HpFT-6HR, HpFT-3HR, HpFT-2HR, HpFT-1HR, or HpFT-0HR) (0.5 mg/mL final) in sequence, and the resulting mixed solution was allowed to react at 30° C. for 3 h. Three parallels were set up for each group. After the reaction time point was reached, to the reaction solution was added 10 mM LacNAc (N-acetyl-D-lactosamine), and the reaction was terminated by a desalting column (Zeba™ Spin Desalting Columns/2 ml/40K, Thermo Fisher Scientific), and finally mass spectrometry was carried out and % of conversion was calculated. % of conversion=(MAR0 peak intensity*0+MAR1peak intensity*1+MAR2 peak intensity*2+MAR3 peak intensity*3+MAR4 peak intensity*4)/4* (MAR0 peak intensity+MAR1 peak intensity+MAR2 peak intensity+MAR3 peak intensity+MAR4 peak intensity)*100%.
(§2) To 40 mM Tris-HCl (pH 7.5) buffer were added Trastuzumab-G2F (2 mg/mL final), GDP-FAmP4Biotin or GDP-FAzP4Biotin (1 mM final), MgCl2 (20 mM final), and HpFT-2HR or HpFT-4HR (0.5 mg/mL final) in sequence, and the resulting mixed solution was allowed to react at 30° C. for 6 h. Three parallels were set up for each group. After the reaction time point was reached, to the reaction solution was added 10 mM LacNAc, and the reaction was terminated by a desalting column (Zeba™ Spin Desalting Columns/2 ml/40K, Thermo Fisher Scientific), and finally mass spectrometry was carried out and % of conversion was calculated. % of conversion was calculated according to Example 17.

[2] = test system: Trastuzumab-(GalNAzβ1,4)GlcNAc; test: HpFT-2HR and HpFT-4HR transferring GDP-FAmP4Biotin or GDP-FAzP4Biotin to Trastuzumab-(GalNAzβ1,4)GlcNAc; details: donor 1 mM, enzyme 0.5 mg/mL, 6 h; FIG. 6(B)
Description: as §1, with “added Trastuzumab-(Fucα1,6)(Galβ1,4)GlcNAc” for “added Trastuzumab-G2F”, “HpFT-2HR, HpFT-1HR” for “HpFT-2HR, HpFT-1HR,”, “for 1” for “for 3”, “mM LacNA,” for “mM LacNAc (N-acetyl-D-lactosamine),”, “peak intensity*2)/2*” for “peak intensity*2+MAR3 peak intensity*3+MAR4 peak intensity*4)/4*”, “peak” for “peak intensity+MAR3 peak intensity+MAR4 peak”
as §2, with “Trastuzumab-(GalNAzβ1,4)GlcNAc” for “Trastuzumab-G2F”, “30 t” for “30° C.”, “18.” for “17.”

[3] = test system: Trastuzumab-(GalNAzβ1,4)GlcNAc; test: HpFT-4HR and HFT6 transferring GDP-FAmP4Biotin to Trastuzumab-(GalNAzβ1,4)GlcNAc; details: donor GDP-FAmP4Biotin 1 mM, enzyme 0.5 mg/mL, 30° C., 6 h; FIG. 5B
Description: Three parallels were set up for each group. After the reaction time point was reached, to the reaction solution was added 10 mM LacNA, and the reaction was terminated by a desalting column (Zeba™ Spin Desalting Columns/2 ml/40K, Thermo Fisher Scientific), and finally mass spectrometry was carried out and % of conversion was calculated. % of conversion=(MAR0 peak intensity*0+MAR1peak intensity*1+MAR2 peak intensity*2)/2* (MAR0 peak intensity+MAR1 peak intensity+MAR2 peak intensity)*100%.
Three parallels were set up for each group. After the reaction time point was reached, to the reaction solution was added 10 mM LacNAc, and the reaction was terminated by a desalting column (Zeba™ Spin Desalting Columns/2 ml/40K, Thermo Fisher Scientific), and finally mass spectrometry was carried out and % of conversion was calculated. […] For Trastuzumab-(GalNAzβ1,4)GlcNAc, % of conversion was calculated according to Example 18.

[4] = test system: Trastuzumab-G2F; test: HpFT-4HR and HFT6 transferring GDP-FAmP4Biotin to Trastuzumab-G2F; details: donor GDP-FAmP4Biotin 1 mM, enzyme 0.5 mg/mL, 30° C., 6 h; FIG. 5A

B1: HpFT-4HR: reported α-1,3 fucosyltransferase (Wu P. et al.): catalytically active domain, four heptapeptide repeat sequences, C-terminus His tag (protein)
chain: MFQPLLDAFIESASIEKMVSKSPPPPLKIAVANWWGDEEIKEFKKSVLYFILSQRYAITLHQNPNESSDLVFSNPLGAARKILSYQNTKRVFYTGENESPNFNLFDYAIGFDELDFNDRYLRMPLYYAHLHYEAELVNDTTAPYKLKDNSLYALKKPSHHFKENHPNLCAVVNDESDLLKRGFASFVASNANAPMRNAFYDALNSIEPVTGGGSVRNTLGYKVGNKSEFLSQYKFNLCFENSQGYGYVTEKILDAYFSHTIPIYWGSPSVAKDFNPKSFVNVHDFNNFDEAIDYIKYLHTHPNAYLDMLYENPLNTLDGKAYFYQDLSFKKILDFFKTILENDTIYHNNPFIFYRDLHEPLISIDDLRVNYDDLRVNYDDLRVNYDDLRVNYLEHHHHHH
modifications: Catalytically active domain of Helicobacter pylori Alpha-(1,3)-fucosyltransferase (GenBank No.AAD07710.1) with 4 heptapeptide repeats and a C-terminal His tag
B1 was tested, and the “activity in catalyzing the transfer of GDP-FAmP4Biotin relative to transfer of GDP-FAzP4Biotin” value [1] was “significantly higher”, the “activity in catalyzing the transfer of GDP-FAmP4Biotin relative to transfer of GDP-FAzP4Biotin” value [2] was “significantly higher” and the “catalytic activity (% of conversion), HpFT-4HR versus HFT6” value [3] was “much higher than that of human-derived fucosyltransferase HFT6”. For the same molecule, the “catalytic activity (% of conversion), HpFT-4HR versus HFT6” value [4] was “much higher than that of human-derived fucosyltransferase HFT6”.
